From patent publication US20240076343A1 (CEPHALON, published 2024)

Tests used:
[1] = target: T1, recombinant His-tagged cynomolgus PD-1 (Acro Biosystems) (cynomolgus, UniProt B0LAJ3 25-170); assay: SPR Carterra LSA;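 also: antibodies or fusion proteins amine-coupled on an HC30M chip, soluble His-tagged human or cynomolgus PD-1 titrated over them, non-regenerative kinetics, constants fitted from titration curves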
T1 construct: His-tagged; also called Cyno PD-1; not shown: His tag (and any linker) of the Acro Biosystems product

[2] = target: T2, recombinant His-tagged human PD-1 (Acro Biosystems) (human, UniProt Q15116 25-167); assay: SPR Carterra LSA;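 also: antibodies or fusion proteins amine-coupled on an HC30M chip, soluble His-tagged human or cynomolgus PD-1 titrated over them, non-regenerative kinetics, constants fitted from titration curves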
T2 construct: His-tagged; also called hPD-1
T2 sequence (Q15116 25-167 limits assumed): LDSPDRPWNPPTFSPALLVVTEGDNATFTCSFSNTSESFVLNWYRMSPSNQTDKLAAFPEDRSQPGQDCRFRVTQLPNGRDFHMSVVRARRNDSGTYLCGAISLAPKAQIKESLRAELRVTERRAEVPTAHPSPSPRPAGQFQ
Protocol: Surface plasmon resonance binding analysis was performed using a high-throughput SPR Carterra® LSA™ to determine binding affinities of anti-hPD-1 antibodies and anti-hPD-1-attenuated hIL-2 fusion proteins. Proteins were diluted to 2 or 10 μg/mL in 10 mM sodium acetate pH 4.5 containing 0.01% Tween-20 and coupled to a HC30M (Carterra Bio) chip using sulpho-N-hydroxysuccinimide/1-ethyl-3-(3-dimethylamino) propyl carbodiimide (sulpho-NHS/EDC) coupling chemistry and blocked with ethanolamine. A non-regenerative kinetic coupling process was used to determine binding kinetics to commercially sourced recombinant His-tagged human PD-1 and His-tagged cynomolgus PD-1 (Acro Biosystems).
The association constants (kₐ), dissociation constants (kd), and equilibrium constants (KD) of various anti-hPD-1 antibodies and anti-hPD-1 antibody-attenuated hIL-2 fusion proteins binding to recombinant human or cynomolgus PD-1 proteins was determined from the titration curves and the Carterra Kinetics software. The maximal feasible SPR signal generated (Rₘₐₓ) and residual standard deviation (Res SD) was also calculated.

T1 sequence (B0LAJ3 entry or part of it limits assumed): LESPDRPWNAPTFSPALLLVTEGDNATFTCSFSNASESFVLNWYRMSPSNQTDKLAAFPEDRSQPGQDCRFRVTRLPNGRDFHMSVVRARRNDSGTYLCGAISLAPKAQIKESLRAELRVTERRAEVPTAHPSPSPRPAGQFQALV

Binder | Kd [1] | koff [1] | kon [1] | Kd [2] | koff [2] | kon [2]
OMC476pG10-hIgG4 (antibody, V domains shown) VH: DVQLVESGGGVVRPGGSLRLSCAASGFTFSIYAMSWVRQAPGEGLEWVSHISASGGSTYYADSVKGRFAISRDNSKNTLYLQMNSLRAEDTAVYYCTTNLGSDYWGLGTLVTVSS VL: QSVLTQPPSASGTPGQRVTISCSGSYSDIGTNYVYWYQQLPGTAPKLLIFATDRRPSGVPDRFSGSKSGTSASLAISGLQSEDEADYYCGTWDDSLNVWVFGGGTKLTVLG | 487 nM | 0.06 s⁻¹ | 120000 M⁻¹ s⁻¹ | 44 nM | 0.0041 s⁻¹ | 93000 M⁻¹ s⁻¹
OMC476pH10-hIgG4 (antibody, V domains shown) VH: DVQLVESGGGVVRPGGSLRLSCAASGFTFSIYAVSWVRQAPGEGLEWVSHISASGGSTYYADSVKGRFAISRDNSKNTLYLQMNSLRAEDTAVYYCTTNLGSDYWGLGTLVTVSS VL: QSVLTQPPSASGTPGQRVTISCSGSYSDIGTNYVYWYQQLPGTAPKLLIFATDRRPSGVPDRFSGSKSGTSASLAISGLQSEDEADYYCGTWDDSLNVWVFGGGTKLTVLG | 480 nM | 0.059 s⁻¹ | 120000 M⁻¹ s⁻¹ | 64 nM | 0.0065 s⁻¹ | 100000 M⁻¹ s⁻¹
2H7-hIgG4-LE (antibody) heavy: not shown light: EIVLTQSPGTLSLSPGERATLSCRASQSIGKSFLAWYQQKPGQAPRLLIYDASTRAADIPARFSGSGSGTDFTLTISSLEPEDFAVYYCQQYYDWPPLSFGGGTKVEIKRTVAAPSVFIFPPSDEQLKSGTASVVCLLNNFYPREAKVQWKVDNALQSGNSQESVTEQDSKDSTYSLSSTLTLSKADYEKHKVYACEVTHQGLSSPVTKSFNRGEC | 7.1 nM | 0.001 s⁻¹ | 140000 M⁻¹ s⁻¹ | 3.1 nM | 0.00082 s⁻¹ | 260000 M⁻¹ s⁻¹
2H7-hIgG4-LAGA (antibody) heavy: not shown light: EIVLTQSPGTLSLSPGERATLSCRASQSIGKSFLAWYQQKPGQAPRLLIYDASTRAADIPARFSGSGSGTDFTLTISSLEPEDFAVYYCQQYYDWPPLSFGGGTKVEIKRTVAAPSVFIFPPSDEQLKSGTASVVCLLNNFYPREAKVQWKVDNALQSGNSQESVTEQDSKDSTYSLSSTLTLSKADYEKHKVYACEVTHQGLSSPVTKSFNRGEC | 12 nM | 0.0011 s⁻¹ | 91000 M⁻¹ s⁻¹ | 5.3 nM | 0.00091 s⁻¹ | 170000 M⁻¹ s⁻¹
A2-hIgG4 (antibody, V domains shown) VH: DVQLVESGGGLVQPGGSLRLSCAASGFTFDISAMSWVRQAPGKGLEWVSTISGSAYSTYYADSVKGRFTISRDNSKSTLYLQMNSLRAEDTAVYYCAREIFSDYWGLGTLVTVSS VL: QSVLTQPPSASGTPGQRVTISCSGSTSNIGRESVYWYQQLPGTAPKLLIYSNVQRPSGAPNRFSGSKSGTSASLAISGLQSEDEADYYCGTWDDSLNGWVFGGGTKLTVLG | 589 nM | 0.04 s⁻¹ | 68000 M⁻¹ s⁻¹ | 36 nM | 0.0013 s⁻¹ | 37000 M⁻¹ s⁻¹
G12-hIgG4 (antibody, V domains shown) VH: DSLVESGGGLVQPGGSLRLSCAASGFTFDISAMSWVRQAPGKGLEWVSTISGSAYSTYYADSVKGRFTISRDNSKSTLYLQMNSLRAEDTAVYYCAREIFSDYWGLGTLVTVSS VL: QSVLTQPPSASGTPGQRVTISCSGSTSNIGRESVYWYQQLPGTAPKLLIYLNSQRPSGVPDRFSGSKSGTSASLAISGLQSEDVADYYCGTWDDSLNGWVFGGGTKLTVLG | 754 nM | 0.065 s⁻¹ | 86000 M⁻¹ s⁻¹ | 50 nM | 0.0026 s⁻¹ | 53000 M⁻¹ s⁻¹
OMC476pE4-hIgG4 (antibody, V domains shown) VH: DVQLVESGGGVVRPGESLRLSCAASGFTFSTDAMGWVRQAPGEGLEWVSLISGSGYSTYYADSVKGRFTISRDNSKNTLYLQMNSLTAEDTAVYYCAKNSLAFFDYWGLGTLVTVSS VL: QSVLTQPPSASGTPGQRVTISCSGGSSNIGRESVNWYQQLPGTAPKLLIYSTDRRPSGVPDRFSGSKSGTSASLAISGLQSEDEADYYCGTWDNDLNGWVFGGGTKLTVLG | 331 nM | 0.035 s⁻¹ | 100000 M⁻¹ s⁻¹ | 11 nM | 0.00088 s⁻¹ | 79000 M⁻¹ s⁻¹
D12-hIgG4 (antibody, V domains shown) VH: DVQLVESGGGLVQPGGSLRLSCAASGFTFDISAMSWVRQAPGKGLEWVSTISGSAYSTYYADSVKGRFTISRDNSKSTLYLQMNSLRAEDTAVYYCAREIFSDYWGLGTLVTVSS VL: QSVLTQPPSASGTPGQRVTISCSGNTSNIGRESVYWYQQLPGTAPKLLIYSNVQRPSGVPDRFSGSKSGTSASLAISGLQSEDEADYYCGTWDDSLNGWVFGGGTKLTVLG | 272 nM | 0.016 s⁻¹ | 59000 M⁻¹ s⁻¹ | 8.1 nM | 0.00046 s⁻¹ | 57000 M⁻¹ s⁻¹
Abz1mod-hIgG4 (antibody, V domains shown) VH: QVQLVQSGSELKKPGASVKVSCKASGYTFTSYAMHWVRQAPGQGLEWMGYISPFTGRATYAQGFTGRFVFSLDTSVSTAYLQISSLKAEDTAVYYCARDYDYRYYYAMDYWGQGTTVTVSS VL: EIVLTQSPDFQSVTPKEKVTITCRASQSIPPQFLHWYQQKPDQSPKLLIKAASQRASGVPSRFSGSGSGTDFTLTINSLEAEDAATYYCHQFHSSPLTFGGGTKLEIKR | 3.7 nM | 0.00062 s⁻¹ | 170000 M⁻¹ s⁻¹ | 0.426 nM | 6e-05 s⁻¹ | 140000 M⁻¹ s⁻¹
OMC.2.C6-hIgG4 (antibody, V domains shown) VH: EVQLLESGGGLVQPGGSLRLSCTASGFTFSSYEMQWVRQAPGKGLEWVLGITSSSSHIFYADSVKGRFTVSRDNSKNTLYLQMNSLRAEDTAVYYCTKDLNSYYGLDVWGQGTTVTVSS VL: QSVMTQPPSASGTPGQRVTISCSGSTSNLGNNYVSWYQHLPGTAPKLLIYGNDQRPSGVPDRFSGSKSGTSASLAISGLQSDDEADYYCSSWDASLNVWVFGGGTKLTVLG | 13 nM | 0.00074 s⁻¹ | 55000 M⁻¹ s⁻¹ | 12 nM | 0.00066 s⁻¹ | 57000 M⁻¹ s⁻¹
OMC.1.B6-hIgG4 (antibody, V domains shown) VH: EVQLLESGGGLVQPGGSLRLSCAASGFTFSSNYMSWVRQAPGKGLEWVSAISSSGGTIFYADSVKGRFTISRDNSKNTLYLQMNSLRAEDTAVYYCAKHKWNAVYYDGMDVWGQGTTVTVSS VL: QSVLTQPPSASGTPGQRVTISCSGSNSNIGRNLVNWYQQLPGTAPKLLIYTIDQRPSGVPDRFSGSKSGTSASLVISGLQSEDEADYYCAAWDGSLNAWVFGGGTKLTVLG | 51 nM | 0.0044 s⁻¹ | 88000 M⁻¹ s⁻¹ | 52 nM | 0.004 s⁻¹ | 77000 M⁻¹ s⁻¹
OMC.1.D6-hIgG4 (antibody, V domains shown) VH: EVQLLESGGGLVQPGGSLRLSCAASGFTFSDYYMSWVRQAPGKGLEWVSAISSSGGTIFYADSVKGRFIISRDNSKNTLYLQMNSLRAEDTAVYYCAKHKWNDVYYDAMDVWGQGTTVTVSS VL: QSVLTQPPSASGTPGQRVTISCSGSNSNIGRNLVNWYQQLPGTAPKLLIYTVDQRPSGVPDRFSGSKSGTSASLAISGLASEDEADYYCAAWDSSLNSWVFGGGTKLTVLG | 694 nM | 0.04 s⁻¹ | 58000 M⁻¹ s⁻¹ | 42 nM | 0.0017 s⁻¹ | 41000 M⁻¹ s⁻¹
